The source of these data is PMC7278358, “Kinetic parameters of human aspartate/asparagine–β-hydroxylase suggest that it has a possible function in oxygen sensing” (The Journal of Biological Chemistry, 2020).

For data set [1], the target named is T1, human His6–AspH315–758 (Homo sapiens, UniProt Q12797).
T1 construct: a pET-28a(+) vector encoding for N-terminal His6-tagged AspH315–758 (His6–AspH315–758) was transformed into Escherichia coli BL21 (DE3) cells; made in house; host or cells: Escherichia coli BL21 (DE3)
T1 sequence (Q12797 315-758): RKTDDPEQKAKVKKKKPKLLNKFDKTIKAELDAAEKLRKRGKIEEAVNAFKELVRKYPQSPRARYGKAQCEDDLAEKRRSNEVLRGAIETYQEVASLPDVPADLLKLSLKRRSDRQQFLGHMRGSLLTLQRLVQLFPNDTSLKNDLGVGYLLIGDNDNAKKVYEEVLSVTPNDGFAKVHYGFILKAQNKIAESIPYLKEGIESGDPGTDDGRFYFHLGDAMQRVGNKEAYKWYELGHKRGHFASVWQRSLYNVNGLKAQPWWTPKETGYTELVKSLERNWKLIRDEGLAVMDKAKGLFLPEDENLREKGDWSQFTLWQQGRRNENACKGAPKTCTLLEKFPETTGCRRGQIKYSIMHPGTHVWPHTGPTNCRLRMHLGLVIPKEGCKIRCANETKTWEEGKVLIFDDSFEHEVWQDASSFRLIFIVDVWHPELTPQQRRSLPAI
Nature of the data set: AspH steady-state kinetics from initial hydroxylation rates (SPE-MS, Michaelis–Menten). The data set is classed as biochemical. The procedure:
(§1) The reactions were monitored with a rate of 1 sample/25 s using the same SPE-MS configuration as described above. The data were analyzed as described above, and the slopes of the initial reaction rates (Fig. S6) were fitted to a Michaelis-Menten plot using nonlinear regression (GraphPad Prism 5). […] The reactions were monitored by SPE-MS with a rate of 1 sample/25 s using identical configurations as before. The data were analyzed as described, and the slopes of the initial reaction rates (Fig. […] The Morrison equation is as follows, where I is the inhibitor concentration, Ki is the dissociation constant of the inhibitor, ET is the total concentration of active enzyme, and vi/v0 is the fractional enzyme activity ([94]).

The test system of data set [2] is bovine AspH. Set-up: method as in PMID 2187868. The following applies: cited from earlier work.
In data set [3] the test system is human 2OG oxygenases, including the PHDs and FIH. The settings on record: read-out: 2OG Km app, most other human 2OG oxygenases; cited from earlier work.
In data set [4] the target is T2, His6–AspH_(315–758) (human) (UniProt Q12797).
T2 sequence: T1 sequence (Q12797 315-758)

The target of data set [5] is T2, His6–AspH_(315–758) (human). The source holds these as a separate data set.
Data set [6] deals with T1, human His6–AspH315–758. Nature of the data set: AspH activity assay: SPE-MS time course of peptide hydroxylation. The data set is classed as biochemical. The settings on record: 0.1 μM His6–AspH315–758, 2.0 μM peptide, 100 μM LAA, 10 μM FAS, 10 μM 2OG, 50 mM HEPES pH 7.5, 20 °C. The procedure: The substrate mixture (1.0 ml) containing 2.4 μM peptide, 120 μM LAA, 12 μM FAS, and 12 μM 2OG in 50 mM HEPES buffer (pH 7.5) was added into a well of a 2-ml volume 96-well assay plate (Greiner) at 20 °C under an ambient atmosphere. A blank sample was analyzed using a RapidFire RF 360 high-throughput sampling robot (Agilent) attached to an Agilent 6530 accurate mass quadrupole TOF mass spectrometer operated in the positive ionization mode. The enzyme mixture (0.2 ml), containing 0.6 μM His6–AspH315–758 in 50 mM HEPES buffer (pH 7.5), was then added to the well and thoroughly mixed. The RapidFire sampling robot was programmed to analyze 1 sample/min. The following SPE-MS conditions were used: assay samples were aspirated under vacuum for 0.4 s and loaded onto a C4 SPE cartridge. After loading, the C4 SPE cartridge was washed with 0.1% (v/v) aqueous formic acid to remove nonvolatile buffer salts (5 s, 1.5 ml/min). The peptide was then eluted from the SPE cartridge with 0.1% (v/v) aqueous formic acid in 85/15 (v/v) acetonitrile/water into the mass spectrometer (5 s, 1.25 ml/min). The SPE cartridge was re-equilibrated with 0.1% (v/v) aqueous formic acid (1 s, 1.25 ml/min). The mass spectrometer parameters were capillary voltage (3500 V), fragmentor voltage (150 V), gas temperature (350 °C), gas flow (12 liters/min). The m/z + 2 charge states of the substrate peptide and the product (hydroxylated) peptide were used to extract ion chromatogram data; peak areas were integrated using RapidFire Integrator software (Agilent). The data were exported into Microsoft Excel and used to calculate the percentage of conversion of the hydroxylation reaction using the equation: % conversion = 100 × (integral product peptide)/(integral substrate peptide + integral product peptide).

Substrate in data set [7]: O=C1O[C@H]([C@@H](O)CO)C(O)=C1O
Nature of the data set: AspH steady-state kinetics from initial hydroxylation rates (SPE-MS, Michaelis–Menten). Format: biochemical, human. The following applies: other: LAA varied; 50 μM FAS, 50 μM 2OG; hFX–CP101–119 substrate; n = 3; pH 7.5; 20.0 °C. The procedure: as §1

[8] abbreviates: 2OG varied, 50 μM FAS, hFX–CP101–119 substrate, n = 3.
The mark [9] stands for this setting: Fe(II) varied, in the absence of LAA, 50 μM 2OG, hFX–CP101–119 substrate, n = 3.
[10] abbreviates: Fe(II) varied, in the presence of LAA (100 μM), 50 μM 2OG, hFX–CP101–119 substrate, n = 3.

Several values for one entry are separate records, joined by “and”; a condition that tells them apart may be missing. Identical values can stand only once. Like-named read-outs stand apart in the source and are kept apart here. Positions of bridges follow the written chain, without caps; N, C: chain ends. Non-standard residues stand in square brackets, D forms with d. No end group written: not given here.

Usually kcat stands for the maximal rate divided by the concentration of active sites. As a reminder, the kcat/Km is the second-order rate constant that governs catalysis at low substrate concentration. The term Km denotes the substrate concentration at which the rate is half of its maximum. For the molecule `O=C(O)CCC(=O)C(=O)O` [2OG, 2-oxoglutarate], the kcat in data set [1] (setting [8]) stood at 0.19 ± 0.03 s⁻¹. Further, the kcat/Km in data set [1] (setting [8]) is 320000 ± 70000 M⁻¹ s⁻¹. In addition, the vmax app in data set [1] (2OG varied, 50 μM FAS, monitoring hydroxylation of hFX–CP101–119, pH 7.5, 20 °C, n = 3) turned out to be 0.0168 ± 0.0005 µM/s. Further, the Km is ~0.6 µM and 0.6 µM in data set [1] (2OG varied, 50 μM FAS, monitoring hydroxylation of hFX–CP101–119, pH 7.5, 20 °C, n = 3, read-out: Km app); about 5 µM in data set [2] (read-out: 2OG Km app); 1 to 25 µM in data set [3].

On to “hC1r–CP_(165–183) (from UniProt P00736 165-183) (peptide)”, for which the Km of AspH for the peptide substrate (steady-state kinetics of peptide hydroxylation, SPE-MS, 50 mM HEPES pH 7.5, 20 °C) in data set [4] was determined as 3 μM.

Consider “hFXII–CP_(110–128) (from UniProt P00748 110-128) (peptide)”, for which, in data set [5], the hydroxylation of the peptide by AspH (SPE-MS), t = 15 min to 200 min is under 1%.

Turning to “hFX–CP101–119: thioether-linked cyclic peptide of hFX amino acids 101–119, Cys110 thiol linked to N-terminal chloroacetyl group, C-terminal amide ({CH2CO}-[dA]KDGLGEYTCTSLEGFEGK-NH2; thioether N-10; SMILES CC(C)C[C@@H]1NC(=O)CNC(=O)[C@H](CC(=O)O)NC(=O)[C@H](CCCCN)NC(=O)[C@@H](C)NC(=O)CSC[C@@H](C(=O)N[C@H](C(=O)N[C@@H](CO)C(=O)N[C@@H](CC(C)C)C(=O)N[C@@H](CCC(=O)O)C(=O)NCC(=O)N[C@@H](Cc2ccccc2)C(=O)N[C@@H](CCC(=O)O)C(=O)NCC(=O)N[C@@H](CCCCN)C(N)=O)[C@@H](C)O)NC(=O)[C@H]([C@@H](C)O)NC(=O)[C@H](Cc2ccc(O)cc2)NC(=O)[C@H](CCC(=O)O)NC(=O)CNC1=O)”, the “time to complete hydroxylation” value in data set [6] (SPE-MS) stood at 7 min. Moreover, the “Hydroxylation t = 15 min” value was over 95% in data set [6] (% conversion by SPE-MS) and over 95% in data set [6] (% conversion by SPE-MS, listed as hFX-CP101-119). In addition, in data set [6] (% conversion by SPE-MS), the “Hydroxylation t = 200 min” value was over 95%. The molecule also displayed a vmax in data set [1] (peptide as varied substrate, 0.1 μM His6–AspH315–758, 100 μM LAA, 20 μM FAS, 20 μM 2OG, 50 mM HEPES pH 7.5, 20 °C, SPE-MS, mean ± S.D., n = 3) of 0.0178 ± 0.0013 µM/s. Further, the Km in data set [1] (peptide as varied substrate, 0.1 μM His6–AspH315–758, 100 μM LAA, 20 μM FAS, 20 μM 2OG, 50 mM HEPES pH 7.5, 20 °C, SPE-MS, mean ± S.D., n = 3, read-out: Km) was determined as 1.19 ± 0.26 µM. Besides, the kcat/Km in data set [1] (peptide as varied substrate, 100 μM LAA, 20 μM FAS, 20 μM 2OG, pH 7.5, 20 °C, mean ± S.D., n = 3) was 170000 ± 50000 M⁻¹ s⁻¹. For the same molecule, in data set [1] (peptide as varied substrate, based on active enzyme 90.8 nM (2,4-PDCA titration), 100 μM LAA, 20 μM FAS, 20 μM 2OG, pH 7.5, 20 °C, mean ± S.D., n = 3), the kcat turned out to be 0.20 ± 0.03 s⁻¹. Further, the “substrate/product inhibition of AspH activity” value in data set [1] (up to 16 μM hFX–CP101–119) is “neither hFX–CP101–119 nor its hydroxylated product inhibited AspH activity”.

As to “hProC–CP_(111–129) (from UniProt P04070 111-129) (peptide)”, in data set [4], the Km of AspH for the peptide substrate (steady-state kinetics of peptide hydroxylation, SPE-MS, 50 mM HEPES pH 7.5, 20 °C) was determined as 1.71 μM.

In the case of “ammonium iron(II) sulfate hexahydrate [Fe(II)]”, the vmax app came out at 0.0168 ± 0.0004 µM/s in data set [1] (Fe(II) (FAS) varied, in the absence of LAA, 50 μM 2OG, monitoring hydroxylation of hFX–CP101–119, pH 7.5, 20 °C, n = 3) and 0.0171 ± 0.0005 µM/s in data set [1] (Fe(II) (FAS) varied, in the presence of LAA (100 μM), 50 μM 2OG, monitoring hydroxylation of hFX–CP101–119, pH 7.5, 20 °C, n = 3). For the same molecule, the Km was 4.76 ± 0.48 µM in data set [1] (Fe(II) (FAS) varied, in the absence of LAA, 50 μM 2OG, monitoring hydroxylation of hFX–CP101–119, pH 7.5, 20 °C, n = 3, read-out: Km app); 1.42 ± 0.16 µM in data set [1] (Fe(II) (FAS) varied, in the presence of LAA (100 μM), 50 μM 2OG, monitoring hydroxylation of hFX–CP101–119, pH 7.5, 20 °C, n = 3, read-out: Km app); 3 µM in data set [2] (read-out: Km app for Fe(II)). In addition, the kcat in data set [1] (setting [9]) and in data set [1] (setting [10]) was 0.19 ± 0.03 s⁻¹ each time. Further, the kcat/Km in data set [1] (setting [9]) was determined as 40000 ± 10000 M⁻¹ s⁻¹; in data set [1] (setting [10]) it was 130000 ± 30000 M⁻¹ s⁻¹.

As to “hFX–CP_(101–119) (from UniProt P00742 101-119) (peptide)”, the Km of AspH for the peptide substrate (steady-state kinetics of peptide hydroxylation, SPE-MS, 50 mM HEPES pH 7.5, 20 °C) in data set [4] came out at 1.19 μM.

As to “hC1s–CP_(147–165) (from UniProt P09871 147-165) (peptide)”, the Km of AspH for the peptide substrate (steady-state kinetics of peptide hydroxylation, SPE-MS, 50 mM HEPES pH 7.5, 20 °C) in data set [4] is 36.5 μM.

Take “hFX–EGFD1_86–124: EGFD1 (amino acids 86–124) of human coagulation factor X (DGDQCETSPCQNQGKCKDGLGEYTCTCLEGFEGKNCELF-NH2; also: mixture of canonical and noncanonical disulfide isomers; UniProt P00742 86-124, looked up, fragment)”: the “conversion at which hydroxylation slowed (consumption of the noncanonical disulfide isomer)” value in data set [6] (after 5 min) is listed as about 45%.

B1: human His6–AspH315–758 (Homo sapiens) (protein)
chain: T1 sequence (Q12797 315-758)
notes: a pET-28a(+) vector encoding for N-terminal His6-tagged AspH315–758 (His6–AspH315–758) was transformed into Escherichia coli BL21 (DE3) cells; made in house; host or cells: Escherichia coli BL21 (DE3)
For B1, the kcat in data set [7] amounted to 0.16 ± 0.03 s⁻¹.
